Source: article PMC12205998

Experiments:
[1] = target: E. fergusonii BrxB WT (Escherichia fergusonii); test: native MS; collected BrxB SEC peaks exchanged into 10 mM ammonium bicarbonate, 0.5 mg/ml, positive ion electrospray time-of-flight MS; monomer and dimer
[2] = target: E. fergusonii BrxB WT (Escherichia fergusonii); test: SEC; analytical SEC of E. fergusonii BrxB alone, 10 μM in 100 μl, Superdex 75 increase 10/300 GL, 20 mM Tris HCl pH 7.9, 150 mM NaCl; monomer and dimer

- stoichiometry N [1]: 2
- stoichiometry N [2]: 2
Substance: E. fergusonii BrxB WT (natural protein)
